Patent EP4569003A2 (dated 2026)

B1: Claudin-6 (CLDN6) antibody 3D07 (antibody, V domains shown)
VH: EVQLQQFGAELVKPGASVKISCRTSGYTFTDYNIDWVRQSHGKSLEWIGDINPNSENTDYNQKFKGKATLTVDKSSSTAYLELRSLTSEDTAVYYCARSPYGNYVGYLMDYWGQGTSVTVSS
VL: DVVLTQTPLSLPVNIGDQASISCRSTKSLLNSDGFTYLDWYLQKPGQSPQVLIYLISNRFSGVPDRFSGNGSGTDFTLKISRVEAEDLGVYYCFQSNYIPLTFGAGTKLELK
notes: Mouse hybridoma clone; Detection was with goat anti-mouse IgG; also called clone 3D07
B2: Claudin-6 (CLDN6) antibody 3H11 (antibody, V domains shown)
VH: EIQLQQSGAELVRPGALVRLSCKPSGFNIKDYYIHWVKERPEQGLEWIGWIDPDNGDTLYDSKFQGKASLTADTSSNTAYLQLTSLTSEDTAVYYCATYRYSFAYWGQGTLVTVSA
VL: DIQMNQSPSSLSASLGDTITITCHASQNINVWLNWYQQKPGNIPKLLIFKASNLYTGVPSRFSGGGSGTGFTLTISSLQPEDIATYYCQQGQTYPLTFGGGTKLEIK
notes: Mouse hybridoma clone; Detection was with goat anti-mouse IgG; also called clone 3H11

Experiments:
[1] = molecular target: T1, CLDN6 cytoplasmic domain peptide SHYMARYSTSAPAIS (SEQ ID NO: 99) (human); test: peptide epitope mapping (FIG 2)
T1 peptide: SHYMARYSTSAPAIS

[2] = molecular target: T2, CLDN4-GFP, expressed in HEK293 T cells (UniProt O14493 1-209); test: immunohistochemistry on FFPE engineered HEK293 cells
T2 construct: whole, on cells; also called Claudin4; HEK293 4; not shown: GFP fused to CLDN4
T2 sequence (looked up): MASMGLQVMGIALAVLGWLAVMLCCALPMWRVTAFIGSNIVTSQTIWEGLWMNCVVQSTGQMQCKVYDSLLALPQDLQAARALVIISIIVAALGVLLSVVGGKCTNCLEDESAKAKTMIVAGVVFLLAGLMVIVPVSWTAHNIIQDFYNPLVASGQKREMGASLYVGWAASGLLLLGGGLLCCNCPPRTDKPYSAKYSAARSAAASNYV

[3] = molecular target: T3, CLDN9-GFP, expressed in HEK293 T cells (UniProt O95484 1-217); test: as above
T3 construct: whole, on cells; also called Claudin9; HEK293 9; not shown: GFP fused to CLDN9
T3 sequence (looked up): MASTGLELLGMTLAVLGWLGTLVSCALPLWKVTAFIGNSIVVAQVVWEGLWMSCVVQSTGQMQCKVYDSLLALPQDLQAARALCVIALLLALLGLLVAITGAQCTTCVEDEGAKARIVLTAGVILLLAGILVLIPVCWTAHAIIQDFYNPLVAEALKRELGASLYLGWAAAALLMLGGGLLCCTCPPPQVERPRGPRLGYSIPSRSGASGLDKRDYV

[4] = molecular target: T4, CLDN3-GFP, expressed in HEK293 T cells (UniProt O15551 1-220); test: as above
T4 construct: whole, on cells; also called Claudin3; HEK293 CLDN3; not shown: GFP fused to CLDN3
T4 sequence (looked up): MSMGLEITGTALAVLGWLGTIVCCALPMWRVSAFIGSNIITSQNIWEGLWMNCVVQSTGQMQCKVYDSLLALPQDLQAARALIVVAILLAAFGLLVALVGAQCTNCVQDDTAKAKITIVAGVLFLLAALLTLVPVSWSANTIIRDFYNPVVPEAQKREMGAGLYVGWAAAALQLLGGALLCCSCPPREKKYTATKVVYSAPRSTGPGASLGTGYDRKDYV

binding result [1] | binding result [2] | binding result [3] | binding result [4] | Binder
binds | no binding | no binding | no binding | B1
 | no binding | no binding | no binding | B2
